Data from US20220168396A1, “MULTI-RECEPTOR AGONIST AND MEDICAL USE THEREOF” (published 2022).
Square brackets hold non-standard residues; d marks the D form. Ends that are not written are not given here. Aib = CC(C)(N)C(=O)O

T1: human glucose-dependent insulinotropic peptide receptor (human, UniProt P48546)
T1 sequence: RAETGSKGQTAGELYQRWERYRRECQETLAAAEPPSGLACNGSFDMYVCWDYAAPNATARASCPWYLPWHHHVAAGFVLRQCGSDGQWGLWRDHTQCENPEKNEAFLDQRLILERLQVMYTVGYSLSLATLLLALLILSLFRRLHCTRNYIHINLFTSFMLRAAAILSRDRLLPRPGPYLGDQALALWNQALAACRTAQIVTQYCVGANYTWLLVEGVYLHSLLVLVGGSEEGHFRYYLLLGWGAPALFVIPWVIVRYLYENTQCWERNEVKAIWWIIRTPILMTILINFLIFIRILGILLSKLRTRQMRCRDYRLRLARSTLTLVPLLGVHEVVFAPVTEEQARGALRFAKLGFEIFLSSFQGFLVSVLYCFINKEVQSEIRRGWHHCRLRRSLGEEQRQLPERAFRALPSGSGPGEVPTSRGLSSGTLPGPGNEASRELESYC


What was measured:
[1] = target: T1, human glucose-dependent insulinotropic …; assay: cell-based or functional assay
[2] = target: human glucagon-like peptide-1 receptor (human, UniProt P43220); assay: cell-based or functional assay

Binder	Activity for human GIPR (EC50 nM), cAMP HTRF [1] [nM]	Activity for human GLP-1R (EC50 nM), cAMP HTRF [2] [nM]
Y[Aib]EGTFTSDYSIYLEKEAAKEFIQWLLAGGPSSGAPPPS-NH2 (N-terminus assumed; SMILES CC[C@H](C)[C@H](NC(=O)[C@H](Cc1ccccc1)NC(=O)[C@H](CCC(=O)O)NC(=O)[C@H](CCCCN)NC(=O)[C@H](C)NC(=O)[C@H](C)NC(=O)[C@H](CCC(=O)O)NC(=O)[C@H](CCCCN)NC(=O)[C@H](CCC(=O)O)NC(=O)[C@H](CC(C)C)NC(=O)[C@H](Cc1ccc(O)cc1)NC(=O)[C@@H](NC(=O)[C@H](CO)NC(=O)[C@H](Cc1ccc(O)cc1)NC(=O)[C@H](CC(=O)O)NC(=O)[C@H](CO)NC(=O)[C@@H](NC(=O)[C@H](Cc1ccccc1)NC(=O)[C@@H](NC(=O)CNC(=O)[C@H](CCC(=O)O)NC(=O)C(C)(C)NC(=O)[C@@H](N)Cc1ccc(O)cc1)[C@@H](C)O)[C@@H](C)O)[C@@H](C)CC)C(=O)N[C@@H](CCC(N)=O)C(=O)N[C@@H](Cc1c[nH]c2ccccc12)C(=O)N[C@@H](CC(C)C)C(=O)N[C@@H](CC(C)C)C(=O)N[C@@H](C)C(=O)NCC(=O)NCC(=O)N1CCC[C@H]1C(=O)N[C@@H](CO)C(=O)N[C@@H](CO)C(=O)NCC(=O)N[C@@H](C)C(=O)N1CCC[C@H]1C(=O)N1CCC[C@H]1C(=O)N1CCC[C@H]1C(=O)N[C@@H](CO)C(N)=O) [Compound No. 65]	0.027	0.013
Y[Aib]EGTFTSDYSIYLEKEAAKEFINWLLAGGPSSGAPPPS-NH2 (N-terminus assumed; SMILES CC[C@H](C)[C@H](NC(=O)[C@H](Cc1ccccc1)NC(=O)[C@H](CCC(=O)O)NC(=O)[C@H](CCCCN)NC(=O)[C@H](C)NC(=O)[C@H](C)NC(=O)[C@H](CCC(=O)O)NC(=O)[C@H](CCCCN)NC(=O)[C@H](CCC(=O)O)NC(=O)[C@H](CC(C)C)NC(=O)[C@H](Cc1ccc(O)cc1)NC(=O)[C@@H](NC(=O)[C@H](CO)NC(=O)[C@H](Cc1ccc(O)cc1)NC(=O)[C@H](CC(=O)O)NC(=O)[C@H](CO)NC(=O)[C@@H](NC(=O)[C@H](Cc1ccccc1)NC(=O)[C@@H](NC(=O)CNC(=O)[C@H](CCC(=O)O)NC(=O)C(C)(C)NC(=O)[C@@H](N)Cc1ccc(O)cc1)[C@@H](C)O)[C@@H](C)O)[C@@H](C)CC)C(=O)N[C@@H](CC(N)=O)C(=O)N[C@@H](Cc1c[nH]c2ccccc12)C(=O)N[C@@H](CC(C)C)C(=O)N[C@@H](CC(C)C)C(=O)N[C@@H](C)C(=O)NCC(=O)NCC(=O)N1CCC[C@H]1C(=O)N[C@@H](CO)C(=O)N[C@@H](CO)C(=O)NCC(=O)N[C@@H](C)C(=O)N1CCC[C@H]1C(=O)N1CCC[C@H]1C(=O)N1CCC[C@H]1C(=O)N[C@@H](CO)C(N)=O) [Compound No. 63]	0.02	0.01
Y[Aib]EGTFTSDYSIYLEKEAAKEFVQWLLAGGPSSGAPPPS-NH2 (N-terminus assumed; SMILES CC[C@H](C)[C@H](NC(=O)[C@H](CO)NC(=O)[C@H](Cc1ccc(O)cc1)NC(=O)[C@H](CC(=O)O)NC(=O)[C@H](CO)NC(=O)[C@@H](NC(=O)[C@H](Cc1ccccc1)NC(=O)[C@@H](NC(=O)CNC(=O)[C@H](CCC(=O)O)NC(=O)C(C)(C)NC(=O)[C@@H](N)Cc1ccc(O)cc1)[C@@H](C)O)[C@@H](C)O)C(=O)N[C@@H](Cc1ccc(O)cc1)C(=O)N[C@@H](CC(C)C)C(=O)N[C@@H](CCC(=O)O)C(=O)N[C@@H](CCCCN)C(=O)N[C@@H](CCC(=O)O)C(=O)N[C@@H](C)C(=O)N[C@@H](C)C(=O)N[C@@H](CCCCN)C(=O)N[C@@H](CCC(=O)O)C(=O)N[C@@H](Cc1ccccc1)C(=O)N[C@H](C(=O)N[C@@H](CCC(N)=O)C(=O)N[C@@H](Cc1c[nH]c2ccccc12)C(=O)N[C@@H](CC(C)C)C(=O)N[C@@H](CC(C)C)C(=O)N[C@@H](C)C(=O)NCC(=O)NCC(=O)N1CCC[C@H]1C(=O)N[C@@H](CO)C(=O)N[C@@H](CO)C(=O)NCC(=O)N[C@@H](C)C(=O)N1CCC[C@H]1C(=O)N1CCC[C@H]1C(=O)N1CCC[C@H]1C(=O)N[C@@H](CO)C(N)=O)C(C)C) [Compound No. 64]	0.033	0.02
Y[Aib]EGTFTSDYSIYLEEIAAQEFVNWLLAGGPSSGAPPPS-NH2 (N-terminus assumed; SMILES CC[C@H](C)[C@H](NC(=O)[C@H](CCC(=O)O)NC(=O)[C@H](CCC(=O)O)NC(=O)[C@H](CC(C)C)NC(=O)[C@H](Cc1ccc(O)cc1)NC(=O)[C@@H](NC(=O)[C@H](CO)NC(=O)[C@H](Cc1ccc(O)cc1)NC(=O)[C@H](CC(=O)O)NC(=O)[C@H](CO)NC(=O)[C@@H](NC(=O)[C@H](Cc1ccccc1)NC(=O)[C@@H](NC(=O)CNC(=O)[C@H](CCC(=O)O)NC(=O)C(C)(C)NC(=O)[C@@H](N)Cc1ccc(O)cc1)[C@@H](C)O)[C@@H](C)O)[C@@H](C)CC)C(=O)N[C@@H](C)C(=O)N[C@@H](C)C(=O)N[C@@H](CCC(N)=O)C(=O)N[C@@H](CCC(=O)O)C(=O)N[C@@H](Cc1ccccc1)C(=O)N[C@H](C(=O)N[C@@H](CC(N)=O)C(=O)N[C@@H](Cc1c[nH]c2ccccc12)C(=O)N[C@@H](CC(C)C)C(=O)N[C@@H](CC(C)C)C(=O)N[C@@H](C)C(=O)NCC(=O)NCC(=O)N1CCC[C@H]1C(=O)N[C@@H](CO)C(=O)N[C@@H](CO)C(=O)NCC(=O)N[C@@H](C)C(=O)N1CCC[C@H]1C(=O)N1CCC[C@H]1C(=O)N1CCC[C@H]1C(=O)N[C@@H](CO)C(N)=O)C(C)C) [Compound No. 70]	0.017	0.017
Y[Aib]EGTFTSDYSIYLEKEAAKEFVAWLLAGGPSSGAPPPS-NH2 (N-terminus assumed; SMILES CC[C@H](C)[C@H](NC(=O)[C@H](CO)NC(=O)[C@H](Cc1ccc(O)cc1)NC(=O)[C@H](CC(=O)O)NC(=O)[C@H](CO)NC(=O)[C@@H](NC(=O)[C@H](Cc1ccccc1)NC(=O)[C@@H](NC(=O)CNC(=O)[C@H](CCC(=O)O)NC(=O)C(C)(C)NC(=O)[C@@H](N)Cc1ccc(O)cc1)[C@@H](C)O)[C@@H](C)O)C(=O)N[C@@H](Cc1ccc(O)cc1)C(=O)N[C@@H](CC(C)C)C(=O)N[C@@H](CCC(=O)O)C(=O)N[C@@H](CCCCN)C(=O)N[C@@H](CCC(=O)O)C(=O)N[C@@H](C)C(=O)N[C@@H](C)C(=O)N[C@@H](CCCCN)C(=O)N[C@@H](CCC(=O)O)C(=O)N[C@@H](Cc1ccccc1)C(=O)N[C@H](C(=O)N[C@@H](C)C(=O)N[C@@H](Cc1c[nH]c2ccccc12)C(=O)N[C@@H](CC(C)C)C(=O)N[C@@H](CC(C)C)C(=O)N[C@@H](C)C(=O)NCC(=O)NCC(=O)N1CCC[C@H]1C(=O)N[C@@H](CO)C(=O)N[C@@H](CO)C(=O)NCC(=O)N[C@@H](C)C(=O)N1CCC[C@H]1C(=O)N1CCC[C@H]1C(=O)N1CCC[C@H]1C(=O)N[C@@H](CO)C(N)=O)C(C)C) [Compound No. 66]	0.054	0.026
Y[Aib]EGTFTSDVSIYLDKIAAQEFVNWLLAGGPSSGAPPPS-NH2 (N-terminus assumed; SMILES CC[C@H](C)[C@H](NC(=O)[C@H](CCCCN)NC(=O)[C@H](CC(=O)O)NC(=O)[C@H](CC(C)C)NC(=O)[C@H](Cc1ccc(O)cc1)NC(=O)[C@@H](NC(=O)[C@H](CO)NC(=O)[C@@H](NC(=O)[C@H](CC(=O)O)NC(=O)[C@H](CO)NC(=O)[C@@H](NC(=O)[C@H](Cc1ccccc1)NC(=O)[C@@H](NC(=O)CNC(=O)[C@H](CCC(=O)O)NC(=O)C(C)(C)NC(=O)[C@@H](N)Cc1ccc(O)cc1)[C@@H](C)O)[C@@H](C)O)C(C)C)[C@@H](C)CC)C(=O)N[C@@H](C)C(=O)N[C@@H](C)C(=O)N[C@@H](CCC(N)=O)C(=O)N[C@@H](CCC(=O)O)C(=O)N[C@@H](Cc1ccccc1)C(=O)N[C@H](C(=O)N[C@@H](CC(N)=O)C(=O)N[C@@H](Cc1c[nH]c2ccccc12)C(=O)N[C@@H](CC(C)C)C(=O)N[C@@H](CC(C)C)C(=O)N[C@@H](C)C(=O)NCC(=O)NCC(=O)N1CCC[C@H]1C(=O)N[C@@H](CO)C(=O)N[C@@H](CO)C(=O)NCC(=O)N[C@@H](C)C(=O)N1CCC[C@H]1C(=O)N1CCC[C@H]1C(=O)N1CCC[C@H]1C(=O)N[C@@H](CO)C(N)=O)C(C)C) [Compound No. 69]	0.12	0.052
